The target in one test is ParGβCopG (UniProt Q9KJ82). Description: cross-linking.
Another test deals with ParGβMetJ (UniProt Q9KJ82). Description: cross-linking.

A word on the stoichiometry N: it is the number of molecules, sites or subunits per partner or assembly.

In turn, ParGβCopG (from UniProt Q9KJ82 1-76) had a stoichiometry N in the test with ParGβCopG of 2.
Take ParGβMetJ (from UniProt Q9KJ82 1-76): the stoichiometry N in the test with ParGβMetJ stood at 2.

The record behind these values is article PMC3413123.
